Tests used:
[1] = biological target: MogRD with individual mutation of the N154, I155 and F156 residues to alanine; assay: ELISA; wells coated with MogR protein (20 nM); three-fold serially diluted His6-tagged GmaRFL, 2 h at 18°C; detected with anti-His6 antibody
[2] = biological target: MogRD^S114A/Q117A/N118A/K122A (Listeria monocytogenes) (UniProt P0DJO8); assay: as above
[3] = biological target: His6-tagged GmaRFL protein; assay: ELISA
[4] = biological target: T1, MogRD (MogR DNA-binding domain) (Listeria monocytogenes, UniProt P0DJO8 1-162); assay: FP; 20 mM Hepes pH 7.4, 150 mM NaCl, 5 mM bME; FP room temperature with 1 nM dsDNA; EMSA 18 C 30 min (GmaR inhibition assays at room temperature, 10 min, 2:1 MogR:dsDNA); conditions: protein: recombinant; tags: N-terminal His6, thrombin site; blunt
T1 sequence: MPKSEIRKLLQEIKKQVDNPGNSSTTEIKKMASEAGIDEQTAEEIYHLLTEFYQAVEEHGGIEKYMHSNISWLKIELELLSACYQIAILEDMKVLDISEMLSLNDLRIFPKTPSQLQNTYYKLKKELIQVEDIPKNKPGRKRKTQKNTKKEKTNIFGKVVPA

[5] = biological target: T2, MogR1-151 (Listeria monocytogenes, UniProt P0DJO8 1-151); assay: as above; conditions: protein: recombinant; tags: N-terminal His6, thrombin site; blunt
T2 sequence: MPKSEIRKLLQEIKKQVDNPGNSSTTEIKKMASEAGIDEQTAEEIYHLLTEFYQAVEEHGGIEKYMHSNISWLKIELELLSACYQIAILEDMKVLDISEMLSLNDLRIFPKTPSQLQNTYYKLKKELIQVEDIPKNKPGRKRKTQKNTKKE

[6] = biological target: T3, MogRD Site1-Ala (Listeria monocytogenes, UniProt P0DJO8 1-162, K152A;T153A;N154A;I155A;F156A); assay: FP; 100 nM MogR with GmaRFL; no inhibition; 20 mM Hepes pH 7.4, 150 mM NaCl, 5 mM bME; FP room temperature with 1 nM dsDNA; EMSA 18 C 30 min (GmaR inhibition assays at room temperature, 10 min, 2:1 MogR:dsDNA); conditions: protein: recombinant; tags: N-terminal His6, thrombin site; chain copies: 2; blunt
[7] = biological target: full-length GmaR (GmaRFL; residues 1–637) (Listeria monocytogenes); assay: SEC; Superdex 200 10/300 at room temperature, 20 mM Hepes pH 7.4, 150 mM NaCl, 5 mM βME; GmaRFL, MogRD and their 1:1 molar mixture
[8] = biological target: full-length GmaR (GmaRFL; residues 1–637) (Listeria monocytogenes); assay: native gel or EMSA; native PAGE (6% gel, pH 8.8, Coomassie); GmaR incubated with MogR at a defined molar ratio at 18°C for 30 min in 20 mM Hepes pH 7.4, 150 mM NaCl, 5 mM βME
[9] = biological target: full-length GmaR (GmaRFL; residues 1–637) (Listeria monocytogenes); assay: ITC; MicroCal iTC200, 18°C; 250 μM MogRD injected into 25 μM GmaRFL or GmaR_(141-637); 20 mM Hepes pH 7.4, 150 mM NaCl, 5 mM βME; one-site binding model
[10] = biological target: T1, MogRD (MogR DNA-binding domain); assay: EMSA; with GmaRFL pretreated at 37 C 15 min; inhibition lost; 20 mM Hepes pH 7.4, 150 mM NaCl, 5 mM bME; FP room temperature with 1 nM dsDNA; EMSA 18 C 30 min (GmaR inhibition assays at room temperature, 10 min, 2:1 MogR:dsDNA); conditions: protein: recombinant; tags: N-terminal His6, thrombin site; label: none (ethidium bromide stain); blunt
[11] = biological target: MogRD SiteMIG-Ala (Listeria monocytogenes, UniProt P0DJO8 1-162, R140A;K141A;R142A;K143A;T144A); assay: EMSA or FP (Supplementary Fig S9; method and label not given in material); 20 mM Hepes pH 7.4, 150 mM NaCl, 5 mM bME; FP room temperature with 1 nM dsDNA; EMSA 18 C 30 min (GmaR inhibition assays at room temperature, 10 min, 2:1 MogR:dsDNA); conditions: protein: recombinant; tags: N-terminal His6, thrombin site; chain copies: 2; label: none (ethidium bromide stain); blunt
[12] = biological target: T3, MogRD Site1-Ala; assay: EMSA; 20 mM Hepes pH 7.4, 150 mM NaCl, 5 mM bME; FP room temperature with 1 nM dsDNA; EMSA 18 C 30 min (GmaR inhibition assays at room temperature, 10 min, 2:1 MogR:dsDNA); conditions: protein: recombinant; tags: N-terminal His6, thrombin site; chain copies: 2; label: none (ethidium bromide stain); blunt
[13] = biological target: T2, MogR1-151; assay: as above; conditions: protein: recombinant; tags: N-terminal His6, thrombin site; label: none (ethidium bromide stain); blunt
[14] = biological target: T4, MogR DBD protein (MogRD; residues 1–162) (Listeria monocytogenes, UniProt P0DJO8 1-162); assay: ITC; MicroCal iTC200, 18°C; 250 μM MogRD injected into 25 μM GmaRFL or GmaR_(141-637); 20 mM Hepes pH 7.4, 150 mM NaCl, 5 mM βME; one-site binding model; conditions: both partners purified
T4 construct: Monomer by gel filtration; also called MogR^GmaR; source: E. coli BL21 (DE3), purified (Ni-NTA, Mono S or Mono Q ion exchange); for the crystal co-purified with GmaR_(231-637)
T4 sequence: T1 sequence

“His6-tagged GmaRFL protein (natural protein)” gave a fold reduction of GmaRFL-binding activity against MogRD [1] of 5 to 6 fold and a fold lower GmaRFL-binding activity than MogRD [2] of 2 fold.

Work on “MogR DBD protein (MogRD; residues 1–162) (from UniProt P0DJO8) F156A” yielded an EC50 ([3]; parent: 220 ± 81) of 1420 nM.

“MogR DBD protein (MogRD; residues 1–162) (from UniProt P0DJO8) I155A” showed an EC50 ([3]; parent: 220 ± 81) of 1170 nM.

Molecule “MogR DBD protein (MogRD; residues 1–162) (from UniProt P0DJO8) K122A” has an EC50 ([3]; parent: 167 ± 18) of 160 nM.

“MogR DBD protein (MogRD; residues 1–162) (from UniProt P0DJO8) K152A” was tested, and the EC50 ([3]; parent: 220 ± 81) was 346 nM.

“MogR DBD protein (MogRD; residues 1–162) (from UniProt P0DJO8) N118A” was tested, and the EC50 ([3]; parent: 167 ± 18) was 185 nM.

For “MogR DBD protein (MogRD; residues 1–162) (from UniProt P0DJO8) N154A”, the EC50 ([3]; parent: 220 ± 81) was 1230 nM.

Work on “MogR DBD protein (MogRD; residues 1–162) (from UniProt P0DJO8) Q117A” yielded an EC50 ([3]; parent: 167 ± 18) of 182 nM.

“MogR DBD protein (MogRD; residues 1–162) (from UniProt P0DJO8) S114A” gave an EC50 ([3]; parent: 167 ± 18) of 139 nM.

With “MogR DBD protein (MogRD; residues 1–162) (from UniProt P0DJO8) S114A; Q117A; N118A; K122A” the EC50 ([3]; parent: 167 ± 18) was 342 nM.

For “MogR DBD protein (MogRD; residues 1–162) (from UniProt P0DJO8) T112A”, the EC50 ([3]; parent: 167 ± 18) was 165 nM.

“MogR DBD protein (MogRD; residues 1–162) (from UniProt P0DJO8) T153A” gave an EC50 ([3]; parent: 220 ± 81) of 518 nM.

B1: operator dsDNA, fluorescein-labeled (dsDNA)
DNA 1: ATTTGATTTTTTAAAAAAATGAAGA
DNA 2: TCTTCATTTTTTTAAAAAATCAAAT
B1: binds [4]; binds [5]; binds [6].

B2: MogR DBD protein (MogRD; residues 1–162) (domain or fragment)
chain: T1 sequence
In the case of B2, the stoichiometry N [7] is reported as 1, the stoichiometry N [8] is reported as 1 and the Kd [9] is reported as 13 nM.

B3: operator dsDNA, unlabeled (dsDNA)
DNA 1: ATTTGATTTTTTAAAAAAATGAAGA
DNA 2: TCTTCATTTTTTTAAAAAATCAAAT
B3: binds [10]; no binding [11]; binds [12]. B3: binds [13].

B4: N-terminally truncated GmaR protein (GmaR_(141-637); residues 141–637) (domain or fragment)
chain: RGVIHEQLEAIDKRPIAAGVAEVKIYHYGYMSEIVEKQDKSDRNLRLLEKEVKNNKNSGFVHFNIGQEMNRLGNKKEALKEFSEAFRLRDHNHYIWAKLSAYHIAELLEQEKRYDESLAIIEEARVIWPNVPEFPLKKANILYVNHQLEDAKEIYQSLLENAAIDYQPIVLYEATNFMPHKMLGTIYLEEKDYTRAMTHFSKAYAENSSDYGVMFQMIMLLSKFHQPKEIFAFMERHHFISSTETGLRLLSMTTQQGYAELSELIVQSLTDVYPPVAEATEVKIATIRNVFPVISESAILFGIKEELIDAADLCLWHYENPQLPIENVMKNSDVGDIYDFIFENGPRISKKRYLFVLERAIALGKGEFADYLLALRNVYHDSINSHIADLFFQYDFADIALDFYNIVDADEVTKQGYINLINYLVDADVLDEALAIAERGIDNFSTDFRFYLWAIKIDTENRANRISEAMDEFPNNRYLAKLLDEVTMLQDTVTNNR
Molecule B4 has a Kd [14] of roughly 22 nM.
